This is an account of results in patent EP4818204A1 (Nanjing Leads Biolabs Co., Ltd., dated 2026).

Like-named read-outs stand apart in the source and are kept apart here.

In test [1] the target is T1, human BMP2 protein (human, UniProt P12643 283-396).
T1 construct: Bought
Kind of test: ELISA, coated protein, antibody at 4 µg/mL. (In general: ELISA stands for enzyme-linked immunosorbent assay.)

In test [2] the target is T2, human Activin A protein (human, UniProt P08476 311-426).
T2 construct: Bought; Activin A is by nature a dimer of inhibin beta A chains
T2 sequence (looked up): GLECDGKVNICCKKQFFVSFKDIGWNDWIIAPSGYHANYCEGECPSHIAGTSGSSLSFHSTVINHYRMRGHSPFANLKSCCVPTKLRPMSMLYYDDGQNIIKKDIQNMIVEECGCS
Kind of test: ELISA, coated protein, antibody at 4 µg/mL.

Test [3] concerns the target T3, human Activin B protein (human, UniProt P09529 293-407).
T3 construct: Bought; Activin B is by nature a dimer of inhibin beta B chains
T3 sequence (looked up): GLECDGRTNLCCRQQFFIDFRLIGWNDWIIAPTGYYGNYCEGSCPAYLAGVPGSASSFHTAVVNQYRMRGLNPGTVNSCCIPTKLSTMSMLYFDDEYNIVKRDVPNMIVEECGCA
The test is described as follows: ELISA, coated protein, antibody at 4 µg/mL.

Test [4] deals with T4, human GDF1 protein (human, UniProt P27539 254-372, limits assumed).
T4 construct: Bought
T4 sequence (looked up): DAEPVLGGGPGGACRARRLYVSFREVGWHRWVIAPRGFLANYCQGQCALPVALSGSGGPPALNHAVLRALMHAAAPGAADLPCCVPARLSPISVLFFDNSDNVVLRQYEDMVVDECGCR
The test is described as follows: ELISA, coated protein, antibody at 4 µg/mL.

Test [5] has as its target T5, human GDF2 protein (human, UniProt Q9UK05 320-429).
T5 construct: Bought
T5 sequence (looked up): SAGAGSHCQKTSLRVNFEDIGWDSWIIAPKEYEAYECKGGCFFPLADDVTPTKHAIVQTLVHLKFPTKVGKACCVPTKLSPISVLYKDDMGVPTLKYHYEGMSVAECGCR
Kind of test: ELISA, coated protein, antibody at 4 µg/mL.

The target in test [6] is T6, human GDF3 protein (human, UniProt Q9NR23 251-364, limits assumed).
T6 construct: Bought
T6 sequence (looked up): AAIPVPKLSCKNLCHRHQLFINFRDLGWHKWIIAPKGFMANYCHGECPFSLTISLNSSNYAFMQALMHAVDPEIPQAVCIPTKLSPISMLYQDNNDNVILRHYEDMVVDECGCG
Kind of test: ELISA, coated protein, antibody at 4 µg/mL.

Test [7] has as its target T7, human BMP4 protein (human, UniProt P12644 293-408).
T7 construct: Bought
T7 sequence (looked up): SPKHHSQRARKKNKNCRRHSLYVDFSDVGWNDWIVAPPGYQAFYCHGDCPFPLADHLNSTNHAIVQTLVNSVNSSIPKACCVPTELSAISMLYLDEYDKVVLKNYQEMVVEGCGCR
Kind of test: ELISA, coated protein, antibody at 4 µg/mL.

Test [8] concerns the target T8, human GDF11 protein (human, UniProt O95390 299-407).
T8 construct: Bought
T8 sequence (looked up): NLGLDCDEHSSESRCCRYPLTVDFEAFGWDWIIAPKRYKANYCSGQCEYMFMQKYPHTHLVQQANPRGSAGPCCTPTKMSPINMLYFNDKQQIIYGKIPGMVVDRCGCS
Kind of test: ELISA, coated protein, antibody at 4 µg/mL.

The next test deals with T9, human GDNF protein (human, UniProt P39905 78-211).
T9 construct: Bought
T9 sequence (looked up): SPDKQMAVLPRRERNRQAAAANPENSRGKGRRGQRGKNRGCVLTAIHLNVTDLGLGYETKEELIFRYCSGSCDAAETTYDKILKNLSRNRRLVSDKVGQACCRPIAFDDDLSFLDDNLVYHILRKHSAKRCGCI
Kind of test: ELISA, coated protein, antibody at 4 µg/mL.

Test [9] concerns the target T10, human TGFβ1 protein (human, UniProt P01137 279-390).
T10 construct: Bought
The test is described as follows: ELISA, coated protein, antibody at 4 µg/mL.

Test [10] deals with T11, human GFRα1 protein (human, UniProt P56159 25-429, limits assumed).
T11 construct: Bought
T11 sequence (looked up): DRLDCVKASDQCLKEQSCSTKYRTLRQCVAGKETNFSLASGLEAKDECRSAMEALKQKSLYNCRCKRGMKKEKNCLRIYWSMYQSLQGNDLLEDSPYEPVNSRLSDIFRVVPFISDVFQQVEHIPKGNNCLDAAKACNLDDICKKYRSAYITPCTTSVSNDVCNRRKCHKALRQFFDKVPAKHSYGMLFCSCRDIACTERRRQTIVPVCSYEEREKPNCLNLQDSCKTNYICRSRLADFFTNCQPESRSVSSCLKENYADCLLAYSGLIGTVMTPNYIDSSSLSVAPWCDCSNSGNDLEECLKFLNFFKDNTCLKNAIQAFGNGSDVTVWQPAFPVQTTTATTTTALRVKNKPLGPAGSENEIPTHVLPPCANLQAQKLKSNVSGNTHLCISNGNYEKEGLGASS
Kind of test: ELISA, coated protein, antibody at 4 µg/mL.

The target of test [11] is T1, human BMP2 protein. Kind of test: ELISA, coated protein, antibody at 4 µg/mL. This is another data set of the same source.
Test [12] concerns the target T2, human Activin A protein. The test is described as follows: ELISA, coated protein, antibody at 4 µg/mL. This is another data set of the same source.
Test [13] concerns the target T3, human Activin B protein. The test is described as follows: ELISA, coated protein, antibody at 4 µg/mL. The source holds these as a separate data set.
A further test has as its target T12, Human GDF15 protein (human, UniProt Q99988 197-308).
T12 construct: Natural GDF15 is said to be a disulfide-linked homodimer; also called Human-GDF15-his
T12 sequence: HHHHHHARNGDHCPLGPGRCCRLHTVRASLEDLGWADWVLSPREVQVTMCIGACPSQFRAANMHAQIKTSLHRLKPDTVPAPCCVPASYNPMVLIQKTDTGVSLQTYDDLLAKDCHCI
The test is described as follows: ELISA, coated protein, antibody at 4 µg/mL.

Test [14] has as its target human AMH protein (human) (UniProt P03971). The test is described as follows: ELISA, coated protein, antibody at 4 µg/mL.
Test [15] addresses human GDF8 protein (human) (UniProt O14793). Kind of test: ELISA, coated protein, antibody at 4 µg/mL.
Test [16] concerns the target T4, human GDF1 protein. Kind of test: ELISA, coated protein.
Test [17] has as its target T5, human GDF2 protein. The test is described as follows: ELISA, coated protein.
Test [18] addresses T6, human GDF3 protein. Kind of test: ELISA, coated protein.
Test [19] deals with T7, human BMP4 protein. The test is described as follows: ELISA, coated protein.
For test [20], the target named is T8, human GDF11 protein. The test is described as follows: ELISA, coated protein.
For test [21], the target named is T10, human TGFβ1 protein. Kind of test: ELISA, coated protein.
The target in test [22] is T11, human GFRα1 protein. Kind of test: ELISA, coated protein.
In test [23] the target is T1, human BMP2 protein. Kind of test: ELISA, coated protein.
Test [24] concerns the target T2, human Activin A protein. Kind of test: ELISA, coated protein.
For test [25], the target named is T3, human Activin B protein. The test is described as follows: ELISA, coated protein.
In test [26] the target is T4, human GDF1 protein. The test is described as follows: ELISA, coated protein, antibody at 4 µg/mL. The source holds these as a separate data set.
Test [27] deals with T5, human GDF2 protein. Kind of test: ELISA, coated protein, antibody at 4 µg/mL. The source holds these as a separate data set.
Test [28] concerns the target T6, human GDF3 protein. Kind of test: ELISA, coated protein, antibody at 4 µg/mL. The source holds these as a separate data set.
In test [29] the target is T7, human BMP4 protein. Kind of test: ELISA, coated protein, antibody at 4 µg/mL. This is another data set of the same source.
The target of test [30] is T8, human GDF11 protein. Kind of test: ELISA, coated protein, antibody at 4 µg/mL. This is another data set of the same source.
For test [31], the target named is T10, human TGFβ1 protein. The test is described as follows: ELISA, coated protein, antibody at 4 µg/mL. The source holds these as a separate data set.
The target of test [32] is T11, human GFRα1 protein. The test is described as follows: ELISA, coated protein, antibody at 4 µg/mL. This is another data set of the same source.
Test [33] addresses T1, human BMP2 protein. Kind of test: ELISA, coated protein, antibody at 4 µg/mL. This is another data set of the same source.
In test [34] the target is T2, human Activin A protein. The test is described as follows: ELISA, coated protein, antibody at 4 µg/mL. This is another data set of the same source.
In test [35] the target is T3, human Activin B protein. Kind of test: ELISA, coated protein, antibody at 4 µg/mL. The source holds these as a separate data set.
In another test the target is T13, human FcRn protein (human, UniProt P55899 24-297).
T13 construct: Bought, loaded on a streptavidin (SA) sensor; FcRn is by nature a heterodimer with beta-2-microglobulin
Kind of test: BLI (Octet RED96e), FcRn on SA sensor, antibody as analyte, binding and dissociation at pH 6.0, 1:1 model.

T10 sequence (P01137 279-390 limits assumed): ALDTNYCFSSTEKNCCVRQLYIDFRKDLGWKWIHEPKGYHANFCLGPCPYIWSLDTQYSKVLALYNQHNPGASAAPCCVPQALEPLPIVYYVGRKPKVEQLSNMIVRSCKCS
T1 sequence (P12643 283-396 limits assumed): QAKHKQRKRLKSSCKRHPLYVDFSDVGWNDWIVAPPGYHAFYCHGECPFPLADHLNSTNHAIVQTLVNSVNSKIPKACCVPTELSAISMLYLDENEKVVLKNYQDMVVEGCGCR
T13 sequence (P55899 24-297 limits assumed, form in doubt): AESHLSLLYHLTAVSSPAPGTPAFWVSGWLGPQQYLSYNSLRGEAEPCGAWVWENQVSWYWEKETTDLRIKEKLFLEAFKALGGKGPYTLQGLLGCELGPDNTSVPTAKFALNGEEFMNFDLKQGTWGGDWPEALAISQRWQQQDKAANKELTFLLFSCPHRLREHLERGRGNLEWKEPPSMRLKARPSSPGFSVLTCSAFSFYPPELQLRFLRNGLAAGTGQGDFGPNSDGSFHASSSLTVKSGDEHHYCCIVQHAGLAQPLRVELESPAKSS

Turning to Ponsegromab (antibody), the OD value (OD 450 nm-620 nm) with human BMP2 protein [1] turned out to be 0.265; in the test with human Activin A protein [2], 0.0698; in the test with human Activin B protein [3], 0.187; with human GDF1 protein [4], 0.0818; in the test with human GDF2 protein [5], 0.555; with human GDF3 protein [6], 0.0676. Further, the OD value (OD 450 nm-620 nm) in the test with human BMP4 protein [7] worked out at 0.0639; with human GDF11 protein [8] it was 0.0375; with human GDNF protein it was 1.21; with human TGFβ1 protein [9] it was 0.129; with human GFRα1 protein [10], 0.124; with human BMP2 protein [11], 0.227. Further, the OD value (OD 450 nm-620 nm) in the test with human Activin A protein [12] stood at 0.0863; with human Activin B protein [13], 0.156; in the test with Human GDF15 protein, 3.33; in [14], 0.0754; in [15] it was 0.0755.

B1: hu19C4C7-YTE (antibody, human IgG1, kappa)
heavy: QVQLVQSGAEVKKPGSSVKVSCKASGYSFTGYIMNWVRQAPGQSLEWMGDIDPYYGGPNYNQKFQGRVTITVDKSTSTAYMELSSLRSEDTAVYYCSRRDYNYGSFAYWGQGTLVTVSSASTKGPSVFPLAPSSKSTSGGTAALGCLVKDYFPEPVTVSWNSGALTSGVHTFPAVLQSSGLYSLSSVVTVPSSSLGTQTYICNVNHKPSNTKVDKKVEPKSCDKTHTCPPCPAPEAAGAPSVFLFPPKPKDTLYITREPEVTCVVVDVSHEDPEVKFNWYVDGVEVHNAKTKPREEQYNSTYRVVSVLTVLHQDWLNGKEYKCKVSNKALPAPIEKTISKAKGQPREPQVYTLPPSREEMTKNQVSLTCLVKGFYPSDIAVEWESNGQPENNYKTTPPVLDSDGSFFLYSKLTVDKSRWQQGNVFSCSVMHEALHNHYTQKSLSLSPGK
light: QIVLTQSPATLSLSPGERATLSCRASSSVNYMHWYQQKPGQAPRPLIYATSNLATGIPARFSGSGSGTDYTLTISSLEPEDFAVYYCQQWSDNPPTFGQGTKLEIKRTVAAPSVFIFPPSDEQLKSGTASVVCLLNNFYPREAKVQWKVDNALQSGNSQESVTEQDSKDSTYSLSSTLTLSKADYEKHKVYACEVTHQGLSSPVTKSFNRGEC
notes: Hu19C4C7 with human IgG1 constant region carrying L234A, L235A, G237A, M252Y, S254T, T256E (EU numbering); also called hu19C4C7-YTE-IgG1-mut
In general, Kd refers to the constant that tells how readily two partners part at equilibrium. The low end stands for a tighter complex, the high end for a looser complex. The koff is a measure of how fast the partners let go of each other. Read a low koff as a long-lived complex. The kon is the rate constant with which the complex forms. Low values mean slow association, high ones fast association. In the case of B1, the binding result with human GDF1 protein [16], with human GDF2 protein [17], in the test with human GDF3 protein [18], in the test with human BMP4 protein [19], with human GDF11 protein [20] and with human TGFβ1 protein [21] was “no binding (tested: 4 µg/mL)” in each case. Further, the binding result with human GFRα1 protein [22], with human BMP2 protein [23], in the test with human Activin A protein [24] and with human Activin B protein [25] was “no binding (tested: 4 µg/mL)” in each case. In addition, the OD value (OD 450 nm-620 nm) came out at 0.296 with human GDNF protein, 2.39 with Human GDF15 protein, 0.0409 in test [14] and 0.0508 in test [15]. Further, the OD value with human GDF1 protein [26] was 0.144 OD 450 nm-620 nm; with human GDF2 protein [27] it was 0.0643 OD 450 nm-620 nm; with human GDF3 protein [28], 0.0907 OD 450 nm-620 nm; with human BMP4 protein [29], 0.0595 OD 450 nm-620 nm; with human GDF11 protein [30], 0.0709 OD 450 nm-620 nm; in the test with human TGFβ1 protein [31], 0.114 OD 450 nm-620 nm. Also, the OD value with human GFRα1 protein [32] came to 0.132 OD 450 nm-620 nm; with human BMP2 protein [33], 0.0973 OD 450 nm-620 nm; in the test with human Activin A protein [34], 0.0582 OD 450 nm-620 nm; in the test with human Activin B protein [35] it was 0.114 OD 450 nm-620 nm. In the test with human FcRn protein, this molecule registered a Kd of 2.89 nM. Moreover, the off-rate constant (koff) in the test with human FcRn protein worked out at 0.00257 s⁻¹. Further, the on-rate (kon) with human FcRn protein came to 889000 M⁻¹ s⁻¹.
